Data on six molecules can be found in patent US20230039487A1 (SHENZHEN FEIPENG BIOLOGICAL THERAPY, published 2023).

Test [1] has as its target T1, human BCMA (full-length, on cells) (human, UniProt Q02223 1-184).
T1 construct: whole, on cells; also called K562-BCMA; CHO-BCMA
T1 sequence (looked up): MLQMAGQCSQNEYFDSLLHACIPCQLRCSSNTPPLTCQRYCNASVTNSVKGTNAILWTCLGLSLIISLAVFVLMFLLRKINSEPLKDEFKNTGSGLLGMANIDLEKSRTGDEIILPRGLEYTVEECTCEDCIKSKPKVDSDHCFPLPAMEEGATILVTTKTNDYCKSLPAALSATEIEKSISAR
Put plainly: flow cytometry on K562, H929, RPMI8226 and K562-BCMA cells; PE goat anti-mouse IgG1. The text has this:
The specificity of BCMA antibody of the present disclosure is detected by FACs. A human BCMA full-length gene is synthesized in vitro, and a restriction enzyme cutting site is introduced, the synthesized human BCMA full-length gene is inserted into a lentiviral packaging plasmid vector (PCDHF) by double enzyme digestion, and lentiviral packaging (the specific operation steps are generally 4 plasmid lentiviral packaging steps, please refer to a section about lentiviral packaging on an official website of Jikai Gene in detail) is performed. The prepared lentivirus is infected with a K562 cell (ATCC, article number: CCL-243) to construct a K562-BCMA cell, and the cells are single-clone-picked and identified, to obtain a stable cell line K562-BCMA stably expressing BCMA. The 5E2 and 5F4 antibodies are respectively incubated with K562, H929, RPMI8226 and K562-BCMA cells for 30 min at 4° C., after that, it is washed twice with PBS, then a secondary antibody PE goat anti-mouse IgG1 (Biolegend, B288920) is added, and incubated at 4° C. for 30 min, after that, it is washed twice with PBS. Then, the detection is performed by using a Beckman Coulter flow cytometry. Detection results are shown in FIG. 5 below, and 5E2 and 5F4 may specifically bind to the cells of which the BCMA expression is positive.

In test [2] the target is T2, hu (human) BCMA ECD His (ACRO, BCA-H522y) (human, UniProt Q02223 1-54).
T2 construct: extracellular domain; Bought reagent (ACRO BCA-H522y); also called hu BCMA ECD His; not shown: His tag
T2 sequence (looked up): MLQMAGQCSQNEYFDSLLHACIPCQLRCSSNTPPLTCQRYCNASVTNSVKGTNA
Description: ELISA; hu BCMA ECD His coated at 2 µg/mL, antibody in 3-fold dilutions. On the technique in general: An ELISA detects its analyte on a solid surface through an enzyme-linked reagent.

Test [3] deals with T3, hBCMA ECD hFc (ACRO, BC7-H5254) (human, UniProt Q02223 1-54).
T3 construct: extracellular domain; Bought reagent (ACRO BC7-H5254); also called R0341; not shown: human Fc
T3 sequence (looked up): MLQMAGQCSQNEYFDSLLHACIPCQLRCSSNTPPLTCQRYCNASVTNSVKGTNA
Put plainly: ELISA; hBCMA ECD hFc coated at 2 µg/ml, antibody in 3-fold dilutions. The text has this: R0317 is a C11D5.3BCMA mouse monoclonal antibody, and its specific sequence and information may be found publicly.

The target of test [4] is T1, human BCMA (full-length, on cells). Put plainly: flow cytometry on K562-BCMA and CHO-BCMA cells; antibody from 30 µg/ml in 3-fold dilutions, APC anti-human IgG Fc. The text has this: A K562 cell (ATCC® CCL-243™) is a human chronic myeloid leukemia cell, and a CHO cell (ATCC® CRL-12023™) is a Chinese hamster ovary cell. The K562 cells and the CHO cells are respectively infected with lentiviruses containing a full-length sequence of human BCMA, and after being infected, a monoclone is picked, to obtain a K562-BCMA cell line and a CHO-BCMA cell line stably expressing BCMA, and the affinity (EC50) of the four humanized antibodies to K562-BCMA and CHO-BCMA is detected respectively. A specific detection method is as follows: cells are harvested, washed once with PBS, and resuspended with PBS according to 2E+5 cells/200 μL. The four BCMA humanized antibodies are diluted in a 3-fold gradient with 1% BSA, the concentration of the former gradient antibody is 3 times greater than that of the latter gradient antibody, (the initial concentration of the antibody is 30 μg/ml, and there is a total of 11 gradients), and then it is respectively incubated with the cells at 4° C. for 30 min. After that, it is incubated with APC anti-human IgG Fc Antibody (Biolegend, 409306) for 30 min at 4° C., washed twice with 1x PBS, and detected by a Beckman Coulter (model number: CytoFLEX) flow cytometry. […] The affinity EC₅₀ of hu VH1VL2 to K562-BCMA is slightly weaker. However, the affinity EC₅₀ of hu VH1-VL2 and CHO-BCMA is at the same level as the other three humanized antibodies, and the expression abundance of the four humanized antibodies and the murine BCMA antibody binding to CHO-BCMA is in the order of m VH-m VL, hu VH1-VL1, hu VH2-VL1, hu VH1-VL2, and hu VH1-VL3 from high to low.
(A flow cytometer gives signals particle by particle.)

The target of test [5] is T2, hu (human) BCMA ECD His (ACRO, …). Put plainly: ELISA; hu BCMA ECD His coated at 2 µg/mL, antibody from 20 µg/mL in 3-fold dilutions. The text has this: Herein, mVH-mVL is a murine BCMA antibody, and is a murine antibody before humanization.
In test [6] the target is T1, human BCMA (full-length, on cells). Description: flow cytometry on RPMI8226 and H929 myeloma cells; antibody from 10 µg/ml in 3-fold dilutions, PE anti-mouse IgG. As to the method: A RPMI8226 cell (ATCC® CRM-CCL-155™) is a human multiple myeloma peripheral blood B lymphocyte, and a H929 cell (ATCC® CRL-9068™) is a human multiple myeloma bone marrow B lymphocyte. A specific detection method is as follows: cells are harvested, washed with PBS once, and then resuspend with PBS according to 2E+5 cells/200 μl. The three antibodies are diluted in a gradient (the initial concentration of the antibody is 10 μg/ml, it is diluted with 1% BSA in 3-fold, and there is a total of 9 gradients), and then incubated with the cells for 30 min at 4° C. After that, it is incubated with a PE-labeled anti-mouse IgG secondary antibody (Biolegend, B288920), washed twice, and detected by a Beckman Coulter (model number: CytoFLEX) flow cytometry.

B1: 5E2 (antibody, V domains shown)
VH: EVQLQQSGPELIKPGASVKMSCKASGYTFTSYVVHWVKQKPGQGLEWIGYIIPYNDDTKYNEKFKGKATLTSDKSSSTAYMELSSLTSEDSAVYYCARWDYDDGYFDYWGQGTTLTVSS
VL: DVVMTQTPLSLPVTLGDQASISCRSSQSLLHSNGNTYLHWYLQKPGQSPKLLIYKVSNRFSGVPDRFSGSGSGTDFTLKISRVEAEDLGVYFCSQITHIPFTFGSGTKLEIKR
notes: Mouse hybridoma antibody; It was amplified with primers for mouse IgG1 and detected with anti-mouse IgG in Embodiment 2; In Embodiment 5 it is called mVH-mVL ('a murine antibody before humanization'); also called BCMA antibody 5E2; mVH-mVL
With B1, the binding result in test [1], in test [2] and in test [3] was “binds” throughout.

B2: hu VH1-VL1 (antibody, V domains shown)
VH: QVQLVQSGAEVKKPGASVKMSCKASGYTFTSYVVHWVRQAPGQGLEWIGYIIPYNDDTKYNEKFKGKATLTSDKSSSTAYMELSSLRSEDTAVYYCARWDYDDGYFDYWGQGTTVTVSS
VL: DVVMTQSPLSLPVTLGQPASISCRSSQSLLHSNGNTYLHWYLQKPGQSPQLLIYKVSNRFSGVPDRFSGSGSGTDFTLKISRVEAEDVGVYFCSQITHIPFTFGQGTKLEIK
notes: Humanized 5E2; also called humanized BCMA antibody hu VH1-VL1
Take B2: the binding result in test [4] and in test [5] was “binds” throughout.

B3: hu VH1-VL3 (antibody, V domains shown)
VH: QVQLVQSGAEVKKPGASVKMSCKASGYTFTSYVVHWVRQAPGQGLEWIGYIIPYNDDTKYNEKFKGKATLTSDKSSSTAYMELSSLRSEDTAVYYCARWDYDDGYFDYWGQGTTVTVSS
VL: DIVMTQTPLSLSVTPGQPASISCKSSQSLLHSNGNTYLHWYLQKPGQPPQLLIYKVSNRFSGVPDRFSGSGSGTDFTLKISRVEAEDVGVYYCSQITHIPFTFGQGTKLEIKR
notes: Humanized 5E2; also called humanized BCMA antibody hu VH1-VL3
With B3, the binding result in test [4] and in test [5] was “binds” in each case.

B4: hu VH1-VL2 (antibody, V domains shown)
VH: QVQLVQSGAEVKKPGASVKMSCKASGYTFTSYVVHWVRQAPGQGLEWIGYIIPYNDDTKYNEKFKGKATLTSDKSSSTAYMELSSLRSEDTAVYYCARWDYDDGYFDYWGQGTTVTVSS
VL: DVVMTQTPLSLSVTPGQPASISCKSSQSLLHSNGNTYLHWYLQKPGQSPQLLIYKVSNRFSGVPDRFSGSGSGTDFTLKISRVEAEDVGVYFCSQITHIPFTFGQGTKLEIK
notes: Humanized 5E2; also called humanized BCMA antibody hu VH1-VL2
On to B4, for which the binding result in test [4] and in test [5] was “binds” throughout.

B5: hu VH2-VL1 (antibody, V domains shown)
VH: QVQLVQSGAEVKKPGASVKMSCKASGYTFTSYVVHWVRQAPGQGLEWIGYIIPYNDDTKYNEKFKGRVTLTSDKSTSTAYMELSSLRSEDTAVYYCARWDYDDGYFDYWGQGTTVTVSS
VL: DVVMTQSPLSLPVTLGQPASISCRSSQSLLHSNGNTYLHWYLQKPGQSPQLLIYKVSNRFSGVPDRFSGSGSGTDFTLKISRVEAEDVGVYFCSQITHIPFTFGQGTKLEIK
notes: Humanized 5E2; also called humanized BCMA antibody hu VH2-VL1
As for B5, the binding result in test [4] and in test [5] was “binds” throughout.

B6: R0317 (C11D5.3 BCMA mouse monoclonal antibody) (antibody, V domains shown)
VH: QIQLVQSGPELKKPGETVKISCKASGYTFTDYSINWVKRAPGKGLKWMGWINTETREPAYAYDFRGRFAFSLETSASTAYLQINNLKYEDTATYFCALDYSYAMDYWGQGTSVTVSS
VL: DIVLTQSPASLAMSLGKRATISCRASESVSVIGAHLIHWYQQKPGQPPKLLIYLASNLETGVPARFSGSGSGTDFTLTIDPVEEDDVAIYSCLQSRIFPRTFGGGTKLEIK
Regarding B6, the binding result in test [6] and in test [3] was “binds” throughout.
